Measured values taken from the supplement of paper PMC12458215.
± gives the uncertainty stated by the source.

Test system: HEK293T
Test: plasma membrane surface immunostaining intensity (anti-HA, deep receptor scanning) (arbitrary fluorescence units); higher = higher plasma membrane expression

Row | Sequence | plasma membrane surface immunostaining intensity (GPCR class: A) | plasma membrane surface immunostaining intensity (GPCR class: A (Olfactory))
1 | MAANVSGAKSCPANFLAAADDKLSGFQGDFLWPILVVEFLVAVASNGLALYRFSIRKQRPWHPAVVFSVQLAVSDLLCALTLPPLAAYLYPPKHWRYGEAACRLERFLFTCNLLGSVIFITCISLNRYLGIVHPFFARSHLRPKHAWAVSAAGWVLAALLAMPTLSFSHLKRPQQGAGNCSVARPEACIKCLGTADHGLAAYRAYSLVLAGLGCGLPLLLTLAAYGALGRAVLRSPGMTVAEKLRVAALVASGVALYASSYVPYHIMRVLNVDARRRWSTRCPSFADIAQATAALELGPYVGYQVMRGLMPLAFCVHPLLYMAAVPSLGCCCRHCPGYRDSWNPEDAKSTGQALPLNATAAPKPSEPQSRELSQ [P2RY11] | 4350 ± 520 | –
2 | MAATASPQPLATEDADSENSSFYYYDYLDEVAFMLCRKDAVVSFGKVFLPVFYSLIFVLGLSGNLLLLMVLLRYVPRRRMVEIYLLNLAISNLLFLVTLPFWGISVAWHWVFGSFLCKMVSTLYTINFYSGIFFISCMSLDKYLEIVHAQPYHRLRTRAKSLLLATIVWAVSLAVSIPDMVFVQTHENPKGVWNCHADFGGHGTIWKLFLRFQQNLLGFLLPLLAMIFFYSRIGCVLVRLRPAGQGRALKIAAALVVAFFVLWFPYNLTLFLHTLLDLQVFGNCEVSQHLDYALQVTESIAFLHCCFSPILYAFSSHRFRQYLKAFLAAVLGWHLAPGTAQASLSSCSESSILTAQEEMTGMNDLGERQSENYPNKEDVGNKSA [ACKR2] | 6400 ± 110 | –
3 | MADAQNISLDSPGSVGAVAVPVVFALIFLLGTVGNGLVLAVLLQPGPSAWQEPGSTTDLFILNLAVADLCFILCCVPFQATIYTLDAWLFGALVCKAVHLLIYLTMYASSFTLAAVSVDRYLAVRHPLRSRALRTPRNARAAVGLVWLLAALFSAPYLSYYGTVRYGALELCVPAWEDARRRALDVATFAAGYLLPVAVVSLAYGRTLRFLWAAVGPAGAAAAEARRRATGRAGRAMLAVAALYALCWGPHHALILCFWYGRFAFSPATYACRLASHCLAYANSCLNPLVYALASRHFRARFRRLWPCGRRRRHRARRALRRVRPASSGPPGCPGDARPSGRLLAGGGQGPEPREGPVHGGEAARGPE [GALR3] | 2680 ± 290 | –
4 | MAEENHTMKNEFILTGFTDHPELKTLLFVVFFAIYLITVVGNISLVALIFTHRRLHTPMYIFLGNLALVDSCCACAITPKMLENFFSENKRISLYECAVQFYFLCTVETADCFLLAAMAYDRYVAICNPLQYHIMMSKKLCIQMTTGAFIAGNLHSMIHVGLVFRLVFCGSNHINHFYCDILPLYRLSCVDPYINELVLFIFSGSVQVFTIGSVLISYLYILLTIFKMKSKEGRAKAFSTCASHFLSVSLFYGSLFFMYVRPNLLEEGDKDIPAAILFTIVVPLLNPFIYSLRNREVISVLRKILMKK [OR5K1] | – | 194 ± 62
5 | MAEHDYHEDYGFSSFNDSSQEEHQDFLQFSKVFLPCMYLVVFVCGLVGNSLVLVISIFYHKLQSLTDVFLVNLPLADLVFVCTLPFWAYAGIHEWVFGQVMCKSLLGIYTINFYTSMLILTCITVDRFIVVVKATKAYNQQAKRMTWGKVTSLLIWVISLLVSLPQIIYGNVFNLDKLICGYHDEAISTVVLATQMTLGFFLPLLTMIVCYSVIIKTLLHAGGFQKHRSLKIIFLVMAVFLLTQMPFNLMKFIRSTHWEYYAMTSFHYTIMVTEAIAYLRACLNPVLYAFVSLKFRKNFWKLVKDIGCLPYLGVSHQWKSSEDNSKTFSASHNVEATSMFQL [CXCR6] | 967 ± 65 | –
6 | MAEMNLTLVTEFLLIAFTEYPEWALPLFLLFLFMYLITVLGNLEMIILILMDHQLHAPMYFLLSHLAFMDVCYSSITVPQMLAVLLEHGAALSYTRCAAQFFLFTFFGSIDCYLLALMAYDRYLAVCQPLLYVTILTQQARLSLVAGAYVAGLISALVRTVSAFTLSFCGTSEIDFIFCDLPPLLKLTCGESYTQEVLIIMFAIFVIPASMVVILVSYLFIIVAIMGIPAGSQAKTFSTCTSHLTAVSLFFGTLIFMYLRGNSDQSSEKNRVVSVLYTEVIPMLNPLIYSLRNKEVKEALRKILNRAKLS [OR9Q1] | – | 422 ± 160
7 | MAERNYTVVTEFFLTAFTEHLQWRVPLFLIFLSFYLATMLGNTGMILLIRGDRRLHTPMYFFLSHLSLVDICYSSAIIPQMLAVLWEHGTTISQARCAAQFFLFTFFASIDCYLLAIMAYDRYTAVCQPLLYVTIITEKARWGLVTGAYVAGFFSAFVRTVTAFTLSFCGNNEINFIFCDLPPLLKLSCGDSYTQEVVIIVFALFVMPACILVILVSYLFIIVAILQIHSAGGRAKTFSTCASHLTAVALFFGTLIFMYLRDNTGQSSEGDRVVSVLYTVVTPMLNPLIYSLRNKEVKEATRKALSKSKPARRP [OR9Q2] | – | 188 ± 71
